Patent US20130071428A1

Columns and labels:
[1] = biological target: J Z Z SKFIGITELKKLESKINKVF (Clostridium tetani)
[2] = biological target: J Z Z F I G I T E L K K L E S K I N K V F (Clostridium tetani)
[3] = biological target: J Z SKFIGITELKKLESKINKVF (Clostridium tetani)
[4] = biological target: J Z F I G I T E L K K L E S K I N K V F (Clostridium tetani)
[5] = biological target: … (18-mer) with Ahx-Lys(biotin) (Clostridium tetani)
[6] = biological target: … (18-mer) with Ahx-Lys(biotin) (Clostridium tetani); assay: Tettox ELISA, biotinylated peptide on streptavidin plate
[7] = biological target: b1, neg contr. (Clostridium tetani); assay: Tettox ELISA, negative control peptide; antibody source not named in Table 4

With TetaQuin® (antibody) as the substance, how does the OD (column without a head) [1] read?
Its OD (column without a head) is 0.47 OD.

What about the OD (column without a head) [2] of the same substance?
The OD (column without a head) was 0.22 OD.

What about the OD (column without a head) [3] of the same substance?
Its OD (column without a head) is 0.28 OD.

What about the OD (column without a head) [4] of the same substance?
Its OD (column without a head) is 0.17 OD.

And the ELISA OD (Ala scan of …, # 3)?
The ELISA OD was 1.04 OD.

What about the ELISA OD (Ala scan of …, # 11) of the same substance?
Its ELISA OD is 0.7 OD.

What about the ELISA OD (Ala scan of …, # 5) of the same substance?
The ELISA OD was 0.3 OD.

What about the ELISA OD (Ala scan of …, # 19) of the same substance?
Its ELISA OD is 1.26 OD.

What about the ELISA OD (Ala scan of …, # 2) of the same substance?
Its ELISA OD is 1.12 OD.

And the ELISA OD (Ala scan of …, # 12)?
Its ELISA OD is 0.85 OD.

What about the ELISA OD (Ala scan of …, # 15) of the same substance?
The ELISA OD was 0.88 OD.

And the ELISA OD (Ala scan of …, # 4)?
Its ELISA OD is 0.65 OD.

What about the ELISA OD (Ala scan of …, # 17) of the same substance?
Its ELISA OD is 1.3 OD.

And the ELISA OD (Ala scan of …, # 8)?
Its ELISA OD is 0.9 OD.

And the ELISA OD (Ala scan of …, # 13)?
Its ELISA OD is 1.27 OD.

What about the ELISA OD (Ala scan of …, # 6) of the same substance?
Its ELISA OD is 0.38 OD.

What about the ELISA OD (Ala scan of …, # 9) of the same substance?
Its ELISA OD is 0.62 OD.

What about the ELISA OD (Ala scan of …, # 14) of the same substance?
Its ELISA OD is 1.1 OD.

And the ELISA OD (Ala scan of …, # 16)?
The ELISA OD was 1.37 OD.

What about the ELISA OD (Ala scan of …, # 10) of the same substance?
Its ELISA OD is 1.06 OD.

And the ELISA OD [5]?
The ELISA OD was 1.26 OD.

And the ELISA OD (Ala scan of …, # 7)?
Its ELISA OD is 1.24 OD.

What about the ELISA OD (Ala scan of …, # 18) of the same substance?
The ELISA OD was 1.24 OD.

What about the OD [6] of the same substance?
The OD was 2.3 OD.

And the OD (column without a head) [7]?
The OD (column without a head) was 0.12 OD.
